Kd, koff and kon data for one molecule are collected here from patent US20170112926A1.

For this test, the target named is hTEM8-AP (UniProt Q9H6X2). Put plainly: Biacore affinity measurement of Fab.
hTEM8-AP, sequence (Q9H6X2 33-321): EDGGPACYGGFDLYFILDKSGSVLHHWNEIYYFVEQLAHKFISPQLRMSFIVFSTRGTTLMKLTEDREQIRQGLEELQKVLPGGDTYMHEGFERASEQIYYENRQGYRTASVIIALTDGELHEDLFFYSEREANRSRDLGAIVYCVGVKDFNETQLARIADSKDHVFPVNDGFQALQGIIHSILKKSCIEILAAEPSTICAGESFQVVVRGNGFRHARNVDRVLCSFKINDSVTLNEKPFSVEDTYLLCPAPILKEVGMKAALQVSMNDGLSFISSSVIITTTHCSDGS

B1: M825 Fab (anti-TEM8 fragment antigen-binding) (Fab, V domains shown)
VH: QVQLVQSGAEVKKPGTSVKVSCKVPGYTFSSYAISWVRQAPGQGLEWMGGIIPIFGTTNYAQKFQGRVTITGEESTSTVYMELSSLRSEDTAVYYCARDTDYMFDYWGQGTLVTVSS
VL: SSELTQDPVVSVALGETVSITCQGDNLRDFYASWYQQKPGQAPLLVMYGKNRRPSGIPDRFSGSTSGNTLSLTITGAQAEDEADYYCSSRDNSKHVVFGGGTKVTVL
In turn, B1 returned a Kd of 0.0591 nM, a koff of 0.00018 s⁻¹ and a kon of 3.05e+06 M⁻¹ s⁻¹.
